# In publication PMC7064759:
# Columns and labels:
# Test in all cases: BLI
# Settings in all cases: BLI: 20 mM Tris-HCl pH 7.4, 80 mM NaCl, temperature not stated; pull-down: 20 mM Tris-HCl pH 7.5, 300 mM KCl, 0.2 mM EDTA, 0.5 mM DTT, 5 ug/ml poly(I.C) …
# [1] = tested on: T1, RBM45 RRM2-HOA (domain 2-HOA), Q8IUH3-3
# T1 sequence: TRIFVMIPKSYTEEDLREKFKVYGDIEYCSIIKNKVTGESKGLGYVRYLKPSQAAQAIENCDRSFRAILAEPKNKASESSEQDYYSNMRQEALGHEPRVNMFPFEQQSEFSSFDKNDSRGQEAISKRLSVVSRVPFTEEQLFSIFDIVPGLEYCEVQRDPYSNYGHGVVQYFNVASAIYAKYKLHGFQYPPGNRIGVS
# [2] = tested on: T2, RBM45 aa 2-257 as printed, Q8IUH3-3
# T2 sequence: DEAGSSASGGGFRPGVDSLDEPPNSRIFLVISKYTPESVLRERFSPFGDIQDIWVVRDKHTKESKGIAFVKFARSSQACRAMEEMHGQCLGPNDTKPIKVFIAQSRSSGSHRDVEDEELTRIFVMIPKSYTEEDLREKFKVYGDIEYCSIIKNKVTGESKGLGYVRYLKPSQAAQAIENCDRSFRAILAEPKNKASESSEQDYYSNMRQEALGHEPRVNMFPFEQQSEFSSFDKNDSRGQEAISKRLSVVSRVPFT
# [3] = tested on: T3, RBM45 domain 2-3, Q8IUH3-3
# T3 sequence: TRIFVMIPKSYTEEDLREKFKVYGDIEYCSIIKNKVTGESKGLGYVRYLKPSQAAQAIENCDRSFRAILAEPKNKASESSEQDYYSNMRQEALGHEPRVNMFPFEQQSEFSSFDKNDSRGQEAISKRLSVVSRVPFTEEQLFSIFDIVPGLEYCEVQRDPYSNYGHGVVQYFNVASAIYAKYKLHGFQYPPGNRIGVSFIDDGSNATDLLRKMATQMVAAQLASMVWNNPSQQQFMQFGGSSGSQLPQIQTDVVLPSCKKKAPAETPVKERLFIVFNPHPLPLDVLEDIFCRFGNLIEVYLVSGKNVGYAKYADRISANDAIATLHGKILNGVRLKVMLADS
sequence,measurement,setting,value
GUAAAGCUACGGGACGGU [ISE3],Kd,[1],21.3 nM
same,Kd,[2],43 nM
same,Kd,[3],21.8 nM
